T1: FcγRIIa H (human, UniProt P12318 34-217)
T1 construct: extracellular domain; also called FcgRIIa H; 2aH; not shown: His tag at the C terminus
T1 sequence (looked up): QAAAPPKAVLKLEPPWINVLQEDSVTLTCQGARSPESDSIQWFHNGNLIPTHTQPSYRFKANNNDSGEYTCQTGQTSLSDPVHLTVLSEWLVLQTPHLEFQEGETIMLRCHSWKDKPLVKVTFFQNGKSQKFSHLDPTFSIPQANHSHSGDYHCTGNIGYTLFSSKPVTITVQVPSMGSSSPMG

T2: FcγRIIb (human, UniProt P31994 43-217)
T2 construct: extracellular domain; also called FcgRIIb; 2b; not shown: His tag at the C terminus
T2 sequence (looked up): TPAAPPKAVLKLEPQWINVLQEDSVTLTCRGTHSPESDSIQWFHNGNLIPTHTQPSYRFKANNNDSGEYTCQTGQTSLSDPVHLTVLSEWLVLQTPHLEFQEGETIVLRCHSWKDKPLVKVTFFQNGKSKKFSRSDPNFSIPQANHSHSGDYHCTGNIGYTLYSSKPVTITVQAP

T3: FcγRIIa R (extracellular domain, His tag at the C terminus) (human, UniProt P12318 34-217)
T3 construct: extracellular domain; Soluble analyte in Biacore; also called FcgRIIa R type; 2aR
T3 sequence (looked up): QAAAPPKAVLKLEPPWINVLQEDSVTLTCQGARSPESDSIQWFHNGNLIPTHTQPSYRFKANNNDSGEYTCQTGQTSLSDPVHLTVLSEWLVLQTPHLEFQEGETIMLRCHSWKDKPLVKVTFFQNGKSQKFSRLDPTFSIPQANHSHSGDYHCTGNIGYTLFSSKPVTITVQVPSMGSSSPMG


Key:
FcγRIIa H [1] = target: T1, FcγRIIa H; experiment: SPR (Biacore); He/Con_2aH divided by He/Con_2b (FcγRIIa H versus FcγRIIb)
FcγRIIa H [2] = target: T1, FcγRIIa H; experiment: SPR (Biacore), FcγR passed over captured antibody; binding amount as % of control GpH7-A5/GpH7-B3/GpL16-k0 (=100)
FcγRIIb = target: T2, FcγRIIb; experiment: as above
[3] = target: T3, FcγRIIa R (extracellular domain, His …); experiment: SPR (Biacore), relative binding, control GpH7-B3/GpL16-k0 = 100
Method: Analysis of interaction between objective antibody and the FcγR was carried out using Biacore T100 (GE Healthcare). HBS-EP+ (GE Healthcare) was used as the running buffer, and the measurement temperature was set to 25° C. Chips produced by immobilizing the antigen peptide by the amine coupling method to a Series S Sencor Chip CM5 (GE Healthcare), or alternatively, chips produced by allowing preliminarily biotinylated antigen peptides to interact with and immobilize onto a Series S Sensor Chip SA (certified) (GE Healthcare) were used. Antibodies of interest were captured onto an antigen peptide-immobilized chip, and allowed to interact to each FcγR diluted with running buffer. To regenerate and repeatedly use the chip, the antibodies captured on the chip were washed off by reacting 10 mM glycine-HCl, pH 1.5.

Row | He_2aH/2b (IIaH/IIb) (FcγRIIa H [1]) | He/Con_2aH (FcγRIIa H [2]) | He/Con_2b (FcγRIIb) | Ho/Con_2aR [3] | Binder
1 | 1.23 ratio | 106 relative, control = 100 | 85.8 relative, control = 100 | – | GpH7-A5/GpH7-B3 variant S324_09D/GpL16-k0 (antibody, human IgG1, kappa, He Ab: mutation in the GpH7-B3 H chain only) heavy 1: not shown heavy 2: not shown light: DIVMTQSPLSLPVTPGEPASISCQASESLVHSNRNTYLHWYLQKPGQSPQLLIYKVSNRFSGVPDRFSGSGSGTDFTLKISRVEAEDVGVYYCSQNTHVPPTFGQGTKVEIERTVAAPSVFIFPPSDEQLKSGTASVVCLLNNFYPREAKVQWKVDNALQSGNSQESVTEQDSKDSTYSLSSTLTLSKADYEKHKVYACEVTHQGLSSPVTKSFNRGEC
2 | – | – | – | 107 % of control | GpH7-B3 variant T335_15Y/GpL16-k0 (antibody, human IgG1, kappa, homodimerized; also called Ho Ab) heavy: not shown light: DIVMTQSPLSLPVTPGEPASISCQASESLVHSNRNTYLHWYLQKPGQSPQLLIYKVSNRFSGVPDRFSGSGSGTDFTLKISRVEAEDVGVYYCSQNTHVPPTFGQGTKVEIERTVAAPSVFIFPPSDEQLKSGTASVVCLLNNFYPREAKVQWKVDNALQSGNSQESVTEQDSKDSTYSLSSTLTLSKADYEKHKVYACEVTHQGLSSPVTKSFNRGEC
3 | 1.69 ratio | 94.1 relative, control = 100 | 55.6 relative, control = 100 | – | GpH7-A5/GpH7-B3 variant Y300_14T/GpL16-k0 (antibody, human IgG1, kappa, He Ab: mutation in the GpH7-B3 H chain only) heavy 1: not shown heavy 2: not shown light: DIVMTQSPLSLPVTPGEPASISCQASESLVHSNRNTYLHWYLQKPGQSPQLLIYKVSNRFSGVPDRFSGSGSGTDFTLKISRVEAEDVGVYYCSQNTHVPPTFGQGTKVEIERTVAAPSVFIFPPSDEQLKSGTASVVCLLNNFYPREAKVQWKVDNALQSGNSQESVTEQDSKDSTYSLSSTLTLSKADYEKHKVYACEVTHQGLSSPVTKSFNRGEC
4 | 1.22 ratio | 102 relative, control = 100 | 83.5 relative, control = 100 | – | GpH7-A5/GpH7-B3 variant S324_16H/GpL16-k0 (antibody, human IgG1, kappa, He Ab: mutation in the GpH7-B3 H chain only) heavy 1: not shown heavy 2: not shown light: DIVMTQSPLSLPVTPGEPASISCQASESLVHSNRNTYLHWYLQKPGQSPQLLIYKVSNRFSGVPDRFSGSGSGTDFTLKISRVEAEDVGVYYCSQNTHVPPTFGQGTKVEIERTVAAPSVFIFPPSDEQLKSGTASVVCLLNNFYPREAKVQWKVDNALQSGNSQESVTEQDSKDSTYSLSSTLTLSKADYEKHKVYACEVTHQGLSSPVTKSFNRGEC
5 | – | – | – | 140 % of control | GpH7-B3 variant G236_10E/GpL16-k0 (antibody, human IgG1, kappa, homodimerized; also called Ho Ab) heavy: not shown light: DIVMTQSPLSLPVTPGEPASISCQASESLVHSNRNTYLHWYLQKPGQSPQLLIYKVSNRFSGVPDRFSGSGSGTDFTLKISRVEAEDVGVYYCSQNTHVPPTFGQGTKVEIERTVAAPSVFIFPPSDEQLKSGTASVVCLLNNFYPREAKVQWKVDNALQSGNSQESVTEQDSKDSTYSLSSTLTLSKADYEKHKVYACEVTHQGLSSPVTKSFNRGEC
6 | 1.44 ratio | 96 relative, control = 100 | 66.8 relative, control = 100 | – | GpH7-A5/GpH7-B3 variant S324_19Q/GpL16-k0 (antibody, human IgG1, kappa, He Ab: mutation in the GpH7-B3 H chain only) heavy 1: not shown heavy 2: not shown light: DIVMTQSPLSLPVTPGEPASISCQASESLVHSNRNTYLHWYLQKPGQSPQLLIYKVSNRFSGVPDRFSGSGSGTDFTLKISRVEAEDVGVYYCSQNTHVPPTFGQGTKVEIERTVAAPSVFIFPPSDEQLKSGTASVVCLLNNFYPREAKVQWKVDNALQSGNSQESVTEQDSKDSTYSLSSTLTLSKADYEKHKVYACEVTHQGLSSPVTKSFNRGEC
7 | 1.34 ratio | 55.4 relative, control = 100 | 41.2 relative, control = 100 | – | GpH7-A5/GpH7-B3 variant Y300_12R/GpL16-k0 (antibody, human IgG1, kappa, He Ab: mutation in the GpH7-B3 H chain only) heavy 1: not shown heavy 2: not shown light: DIVMTQSPLSLPVTPGEPASISCQASESLVHSNRNTYLHWYLQKPGQSPQLLIYKVSNRFSGVPDRFSGSGSGTDFTLKISRVEAEDVGVYYCSQNTHVPPTFGQGTKVEIERTVAAPSVFIFPPSDEQLKSGTASVVCLLNNFYPREAKVQWKVDNALQSGNSQESVTEQDSKDSTYSLSSTLTLSKADYEKHKVYACEVTHQGLSSPVTKSFNRGEC
8 | 1.34 ratio | 92.2 relative, control = 100 | 68.6 relative, control = 100 | – | GpH7-A5/GpH7-B3 variant S324_11K/GpL16-k0 (antibody, human IgG1, kappa, He Ab: mutation in the GpH7-B3 H chain only) heavy 1: not shown heavy 2: not shown light: DIVMTQSPLSLPVTPGEPASISCQASESLVHSNRNTYLHWYLQKPGQSPQLLIYKVSNRFSGVPDRFSGSGSGTDFTLKISRVEAEDVGVYYCSQNTHVPPTFGQGTKVEIERTVAAPSVFIFPPSDEQLKSGTASVVCLLNNFYPREAKVQWKVDNALQSGNSQESVTEQDSKDSTYSLSSTLTLSKADYEKHKVYACEVTHQGLSSPVTKSFNRGEC
9 | 1.53 ratio | 96.5 relative, control = 100 | 63.1 relative, control = 100 | – | GpH7-A5/GpH7-B3 variant S324_12R/GpL16-k0 (antibody, human IgG1, kappa, He Ab: mutation in the GpH7-B3 H chain only) heavy 1: not shown heavy 2: not shown light: DIVMTQSPLSLPVTPGEPASISCQASESLVHSNRNTYLHWYLQKPGQSPQLLIYKVSNRFSGVPDRFSGSGSGTDFTLKISRVEAEDVGVYYCSQNTHVPPTFGQGTKVEIERTVAAPSVFIFPPSDEQLKSGTASVVCLLNNFYPREAKVQWKVDNALQSGNSQESVTEQDSKDSTYSLSSTLTLSKADYEKHKVYACEVTHQGLSSPVTKSFNRGEC
10 | – | – | – | 107 % of control | GpH7-B3 variant G236_09D/GpL16-k0 (antibody, human IgG1, kappa, homodimerized; also called Ho Ab) heavy: not shown light: DIVMTQSPLSLPVTPGEPASISCQASESLVHSNRNTYLHWYLQKPGQSPQLLIYKVSNRFSGVPDRFSGSGSGTDFTLKISRVEAEDVGVYYCSQNTHVPPTFGQGTKVEIERTVAAPSVFIFPPSDEQLKSGTASVVCLLNNFYPREAKVQWKVDNALQSGNSQESVTEQDSKDSTYSLSSTLTLSKADYEKHKVYACEVTHQGLSSPVTKSFNRGEC
11 | – | – | – | 157 % of control | GpH7-B3 variant H268_09D/GpL16-k0 (antibody, human IgG1, kappa, homodimerized; also called Ho Ab) heavy: not shown light: DIVMTQSPLSLPVTPGEPASISCQASESLVHSNRNTYLHWYLQKPGQSPQLLIYKVSNRFSGVPDRFSGSGSGTDFTLKISRVEAEDVGVYYCSQNTHVPPTFGQGTKVEIERTVAAPSVFIFPPSDEQLKSGTASVVCLLNNFYPREAKVQWKVDNALQSGNSQESVTEQDSKDSTYSLSSTLTLSKADYEKHKVYACEVTHQGLSSPVTKSFNRGEC
12 | 1.33 ratio | 103 relative, control = 100 | 77.4 relative, control = 100 | – | GpH7-A5/GpH7-B3 variant S324_10E/GpL16-k0 (antibody, human IgG1, kappa, He Ab: mutation in the GpH7-B3 H chain only) heavy 1: not shown heavy 2: not shown light: DIVMTQSPLSLPVTPGEPASISCQASESLVHSNRNTYLHWYLQKPGQSPQLLIYKVSNRFSGVPDRFSGSGSGTDFTLKISRVEAEDVGVYYCSQNTHVPPTFGQGTKVEIERTVAAPSVFIFPPSDEQLKSGTASVVCLLNNFYPREAKVQWKVDNALQSGNSQESVTEQDSKDSTYSLSSTLTLSKADYEKHKVYACEVTHQGLSSPVTKSFNRGEC
13 | – | – | – | 154 % of control | GpH7-B3 variant H268_10E/GpL16-k0 (antibody, human IgG1, kappa, homodimerized; also called Ho Ab) heavy: not shown light: DIVMTQSPLSLPVTPGEPASISCQASESLVHSNRNTYLHWYLQKPGQSPQLLIYKVSNRFSGVPDRFSGSGSGTDFTLKISRVEAEDVGVYYCSQNTHVPPTFGQGTKVEIERTVAAPSVFIFPPSDEQLKSGTASVVCLLNNFYPREAKVQWKVDNALQSGNSQESVTEQDSKDSTYSLSSTLTLSKADYEKHKVYACEVTHQGLSSPVTKSFNRGEC
14 | 1.64 ratio | 88.1 relative, control = 100 | 53.9 relative, control = 100 | – | GpH7-A5/GpH7-B3 variant Y300_13S/GpL16-k0 (antibody, human IgG1, kappa, He Ab: mutation in the GpH7-B3 H chain only) heavy 1: not shown heavy 2: not shown light: DIVMTQSPLSLPVTPGEPASISCQASESLVHSNRNTYLHWYLQKPGQSPQLLIYKVSNRFSGVPDRFSGSGSGTDFTLKISRVEAEDVGVYYCSQNTHVPPTFGQGTKVEIERTVAAPSVFIFPPSDEQLKSGTASVVCLLNNFYPREAKVQWKVDNALQSGNSQESVTEQDSKDSTYSLSSTLTLSKADYEKHKVYACEVTHQGLSSPVTKSFNRGEC
15 | 1.21 ratio | 97.8 relative, control = 100 | 81.1 relative, control = 100 | – | GpH7-A5/GpH7-B3 variant S324_18N/GpL16-k0 (antibody, human IgG1, kappa, He Ab: mutation in the GpH7-B3 H chain only) heavy 1: not shown heavy 2: not shown light: DIVMTQSPLSLPVTPGEPASISCQASESLVHSNRNTYLHWYLQKPGQSPQLLIYKVSNRFSGVPDRFSGSGSGTDFTLKISRVEAEDVGVYYCSQNTHVPPTFGQGTKVEIERTVAAPSVFIFPPSDEQLKSGTASVVCLLNNFYPREAKVQWKVDNALQSGNSQESVTEQDSKDSTYSLSSTLTLSKADYEKHKVYACEVTHQGLSSPVTKSFNRGEC

Source: US20150344570A1 (published 2015)
